As a reminder, the Kd is a measure of binding affinity in units of concentration.

The test addresses imiglucerase/Cerezyme (recombinant GCase, Sanofi Genzyme) (Homo sapiens) (UniProt P04062). Description: MST. As to conditions: Fc fusion.

Sequence of imiglucerase/Cerezyme (recombinant GCase, Sanofi Genzyme) (Homo sapiens) (P04062 other isoform, or with tags, fused parts or gaps): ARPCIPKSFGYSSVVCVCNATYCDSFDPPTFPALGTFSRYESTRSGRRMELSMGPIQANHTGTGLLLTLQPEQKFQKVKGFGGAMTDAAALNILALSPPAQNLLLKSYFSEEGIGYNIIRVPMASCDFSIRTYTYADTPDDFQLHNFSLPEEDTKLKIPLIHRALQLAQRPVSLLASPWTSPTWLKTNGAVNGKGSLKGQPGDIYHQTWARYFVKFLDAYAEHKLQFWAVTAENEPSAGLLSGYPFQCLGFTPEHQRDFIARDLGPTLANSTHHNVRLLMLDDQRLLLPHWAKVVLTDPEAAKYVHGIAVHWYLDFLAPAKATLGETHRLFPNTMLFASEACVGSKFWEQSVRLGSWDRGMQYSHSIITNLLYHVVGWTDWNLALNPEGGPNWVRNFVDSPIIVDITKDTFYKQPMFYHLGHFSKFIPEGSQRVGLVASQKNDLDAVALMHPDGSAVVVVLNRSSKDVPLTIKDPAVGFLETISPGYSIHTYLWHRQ
Sequence of sLIMP‐2‐FC (Sino Biological #11063‐H03H) (Q14108 27-432): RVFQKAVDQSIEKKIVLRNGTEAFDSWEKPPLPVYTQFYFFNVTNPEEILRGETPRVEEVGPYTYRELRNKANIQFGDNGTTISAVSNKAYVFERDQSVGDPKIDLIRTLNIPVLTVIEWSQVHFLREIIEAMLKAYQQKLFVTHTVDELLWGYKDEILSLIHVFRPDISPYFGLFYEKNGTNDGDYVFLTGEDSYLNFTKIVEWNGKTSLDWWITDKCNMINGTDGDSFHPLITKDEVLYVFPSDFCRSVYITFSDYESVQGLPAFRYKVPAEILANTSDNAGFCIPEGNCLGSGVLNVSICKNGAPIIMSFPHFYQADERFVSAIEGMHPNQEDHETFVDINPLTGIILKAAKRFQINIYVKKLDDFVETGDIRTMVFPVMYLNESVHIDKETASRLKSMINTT

Regarding “sLIMP‐2‐FC (Sino Biological #11063‐H03H)”, the equilibrium dissociation constant (Kd) amounted to 1380 nM.

Source of the values: article PMC11220700, “Activation and Purification of ß‐Glucocerebrosidase by Exploiting its Transporter LIMP‐2 – Implications for Novel Treatment Strategies in Gaucher's and Parkinson's Disease” (Advanced Science, 2024).
